Assay results taken from doi:10.1101/737510 (bioRxiv, 2019).

Target: DDA1 (human, UniProt Q9BW61 1-102)
Test: crystal structure

B1: DDB1(ΔBPB) (natural protein)
chain: MSYNYVVTAQKPTAVNGCVTGHFTSAEDLNLLIAKNTRLEIYVVTAEGLRPVKEVGMYGKIAVMELFRPKGESKDLLFILTAKYNACILEYKQSGESIDIITRAHGNVQDRIGRPSETGIIGIIDPECRMIGLRLYDGLFKVIPLDRDNKELKAFNIRLEELHVIDVKFLYGCQAPTICFVYQDPQGRHVKTYEVSLREKEFNKGPWKQENVEAEASMVIAVPEPFGGAIIIGQESITYHNGDKYLAIAPPIIKQSTIVCHNRVDPNGSRYLLGDMEGRLFMLLLEKEEQMDGTVTLKDLRVELLGETSIAECLTYLDNGVVFVGSRLGDSQLVKLNVDSNEQGSYVVAMETFTNLGPIVDMCVVDLERQGQGQLVTCSGAFKEGSLRIIRNGIGIHGTIDEIQKLHIRTVPLYESPRKICYQEVSQCFGVLSSRIEVQDTSGGTTALRPSASTQALSSSVSSSKLFSSSTAPHETSFGEEVEVHNLLIIDQHTFEVLHAHQFLQNEYALSLVSCKLGKDPNTYFIVGTAMVYPEEAEPKQGRIVVFQYSDGKLQTVAEKEVKGAVYSMVEFNGKLLASINSTVRLYEWTTEKELRTECNHYNNIMALYLKTKGDFILVGDLMRSVLLLAYKPMEGNFEEIARDFNPNWMSAVEILDDDNFLGAENAFNLFVCQKDSAATTDEERQHLQEVGLFHLGEFVNVFCHGSLVMQNLGETSTPTQGSVLFGTVNGMIGLVTSLSESWYNLLLDMQNRLNKVIKSVGKIEHSFWRSFHTERKTEPATGFIDGDLIESFLDISRPKMQEVVANLQYDDGSGMKREATADDLIKVVEELTRIH
B1: binds.
